Reference: patent publication US20240287202A1 (XYPHOS BIOSCIENCES, published 2024)

Assays:
[1] = target: T1, mouse NKG2D (mouse, UniProt O54709 94-232, limits assumed); assay: ELISA on mouse NKG2D, absorbance against nM MicAbody
T1 construct: also called mouse wild-type NKG2D
T1 sequence (looked up): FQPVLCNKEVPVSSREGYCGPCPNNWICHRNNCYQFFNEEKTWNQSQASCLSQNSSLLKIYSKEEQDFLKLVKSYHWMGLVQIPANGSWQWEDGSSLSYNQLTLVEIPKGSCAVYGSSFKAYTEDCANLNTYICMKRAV

[2] = target: T2, Fc-iNKG2D.YA (NKG2D ectodomain Y152A fused to the C-terminus of human IgG1 Fc) (human, UniProt P26718 78-216); assay: Octet BLI; Fc-iNKG2D.YA captured on AHC tips, two-fold dilution series of MicAbody from 50 nM
T2 construct: range 78-216; it is not tied by words to this Fc fusion; not shown: human IgG1 Fc
T2 sequence: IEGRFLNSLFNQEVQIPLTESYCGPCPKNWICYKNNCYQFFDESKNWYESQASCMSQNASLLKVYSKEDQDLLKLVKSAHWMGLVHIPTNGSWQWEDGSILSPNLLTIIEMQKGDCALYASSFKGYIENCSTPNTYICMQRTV
From the text: The y-axes corresponding to binding responses were set to the same scale for all sensograms.

[3] = target: T2, Fc-iNKG2D.YA (NKG2D ectodomain Y152A …); assay: ELISA; wells coated with Fc-iNKG2D.YA, Rituximab.LC-U2S3 titrated, HRP anti-human kappa
[4] = target: Fc-iNKG2D.YA (NKG2D ectodomain Y152A fused to the C-terminus of human IgG1 Fc) (human) (UniProt P26718); assay: ELISA; wells coated with Fc-iNKG2D.YA, R3Mab heavy-chain MicAbody titrated
[5] = target: Fc-wtNKG2D (wild-type NKG2D ectodomain fused to the C-terminus of human IgG1 Fc) (human) (UniProt P26718); assay: ELISA; wells coated with Fc-wtNKG2D, R3Mab heavy-chain MicAbody titrated
[6] = target: T3, A1-A2 domain of human MICA*001 with C-terminal 6x-His tag (monomer) (human, UniProt Q29983 24-205); assay: Octet BLI; Fc-wtNKG2D captured on anti-human IgG Fc (AHC) tips, dilution series of His-tagged monomeric ligand
T3 construct: range 24-205; also called MIC-His ligand
T3 sequence: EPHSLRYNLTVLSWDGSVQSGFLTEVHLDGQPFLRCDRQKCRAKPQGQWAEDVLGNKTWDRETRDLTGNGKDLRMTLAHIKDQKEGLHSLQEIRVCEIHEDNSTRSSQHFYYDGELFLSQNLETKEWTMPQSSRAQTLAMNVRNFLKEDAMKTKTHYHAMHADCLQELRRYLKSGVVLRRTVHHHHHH
From the text: Note that all axes are to the same scale (Binding-0 nm, 0.4 nm. 0.8 nm, 1.2 nm (y-axis); Time-0 s, 50 s, 100 s, 150 s, 200 s, 250 s, 300 s, 350 s (x-axis). Data is representative of a single experiment.

[7] = target: T4, MICA-Fc (R&D Systems) (human, UniProt Q29983 24-308, limits assumed); assay: ELISA; ligand-Fc coated, biotinylated Fc-wtNKG2D, streptavidin-HRP (legend: the Fc-NKG2D is titrated; axis on the sheet: nM ligand-Fc)
T4 construct: Bought; also called Ligand-Fc fusion; not shown: Fc of the bought fusion; not described
T4 sequence (looked up): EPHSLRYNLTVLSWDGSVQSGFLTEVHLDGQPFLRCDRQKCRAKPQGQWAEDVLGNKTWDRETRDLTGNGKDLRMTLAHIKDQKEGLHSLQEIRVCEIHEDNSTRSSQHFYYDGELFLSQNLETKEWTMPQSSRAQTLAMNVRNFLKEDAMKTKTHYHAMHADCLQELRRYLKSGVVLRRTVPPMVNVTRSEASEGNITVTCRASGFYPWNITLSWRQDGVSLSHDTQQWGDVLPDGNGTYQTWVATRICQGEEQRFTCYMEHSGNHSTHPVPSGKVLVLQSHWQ

[8] = target: T5, ULBP1-Fc (R&D Systems) (human, UniProt Q9BZM6 26-216); assay: as above
T5 construct: Bought; also called Ligand-Fc fusion; not shown: Fc of the bought fusion; not described
T5 sequence (looked up): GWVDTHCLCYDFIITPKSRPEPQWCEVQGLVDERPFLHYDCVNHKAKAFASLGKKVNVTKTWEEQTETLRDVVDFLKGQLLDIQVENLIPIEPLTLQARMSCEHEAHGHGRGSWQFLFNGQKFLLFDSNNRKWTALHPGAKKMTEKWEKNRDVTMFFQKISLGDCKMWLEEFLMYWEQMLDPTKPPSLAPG

[9] = target: T6, ULBP3-Fc (R&D Systems) (human, UniProt Q9BZM4 30-217); assay: as above
T6 construct: Bought; also called Ligand-Fc fusion; not shown: Fc of the bought fusion; not described
T6 sequence (looked up): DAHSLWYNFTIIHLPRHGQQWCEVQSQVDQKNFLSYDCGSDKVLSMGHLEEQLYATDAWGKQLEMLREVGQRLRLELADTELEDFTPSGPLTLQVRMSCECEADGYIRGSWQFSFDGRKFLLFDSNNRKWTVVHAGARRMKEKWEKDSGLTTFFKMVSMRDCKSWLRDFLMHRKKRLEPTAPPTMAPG

[10] = target: T7, MICB-Fc (R&D Systems) (human, UniProt Q29980 23-298, limits assumed); assay: as above
T7 construct: Bought; also called Ligand-Fc fusion; not shown: Fc of the bought fusion; not described
T7 sequence (looked up): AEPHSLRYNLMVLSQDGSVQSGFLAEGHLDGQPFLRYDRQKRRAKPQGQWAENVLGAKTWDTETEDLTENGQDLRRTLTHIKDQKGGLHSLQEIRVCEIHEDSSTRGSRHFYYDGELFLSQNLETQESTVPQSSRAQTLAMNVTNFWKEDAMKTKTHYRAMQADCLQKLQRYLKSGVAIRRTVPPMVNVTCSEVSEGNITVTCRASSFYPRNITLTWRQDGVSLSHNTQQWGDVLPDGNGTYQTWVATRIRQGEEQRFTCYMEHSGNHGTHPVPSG

[11] = target: T8, A1-A2 domain of human ULBP3 with C-terminal 6x-His tag (monomer) (human, UniProt Q9BZM4 30-212); assay: Octet BLI, response against concentration (legend: monomeric ligands; axis on the sheet: nM Fc-NKG2D.wt)
T8 construct: range 30-212; also called MIC-His ligand
T8 sequence: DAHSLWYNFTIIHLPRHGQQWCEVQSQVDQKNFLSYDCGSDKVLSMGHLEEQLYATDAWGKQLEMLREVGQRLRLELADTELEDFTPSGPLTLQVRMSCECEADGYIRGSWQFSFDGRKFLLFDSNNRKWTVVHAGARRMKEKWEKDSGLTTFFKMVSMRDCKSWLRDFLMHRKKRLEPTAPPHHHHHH

[12] = target: T9, A1-A2 domain of human MICB with C-terminal 6x-His tag (monomer) (human, UniProt Q29980 24-205); assay: as above
T9 construct: range 24-205; also called MIC-His ligand
T9 sequence: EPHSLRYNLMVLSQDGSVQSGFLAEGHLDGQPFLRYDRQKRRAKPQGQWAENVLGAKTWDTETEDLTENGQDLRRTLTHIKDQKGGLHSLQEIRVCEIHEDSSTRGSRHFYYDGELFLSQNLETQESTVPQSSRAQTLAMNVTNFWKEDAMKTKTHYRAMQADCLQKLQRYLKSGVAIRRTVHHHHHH

[13] = target: T10, A1-A2 domain of human ULBP2 with C-terminal 6x-His tag (monomer) (human, UniProt Q9BZM5 29-212); assay: Octet BLI; Fc-wtNKG2D captured on AHC tips, dilution series of His-tagged monomeric ligand
T10 construct: range 29-212; also called wild-type ULBP2; MIC-His ligand
T10 sequence: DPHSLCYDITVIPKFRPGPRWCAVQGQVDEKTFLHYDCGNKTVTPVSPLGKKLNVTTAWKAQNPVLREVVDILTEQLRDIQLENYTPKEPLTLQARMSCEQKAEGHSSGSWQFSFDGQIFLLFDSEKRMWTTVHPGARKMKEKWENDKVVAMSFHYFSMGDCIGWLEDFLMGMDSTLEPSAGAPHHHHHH
From the text: (§1) YA. […] YA were captured with anti-human IgG Fc capture (AHC) biosensor tips then associated with a dilution series of ligand. Data are from single experiments.

[14] = target: T11, His-tagged monomeric ULBP2 R81W (human, UniProt Q9BZM5 29-212); assay: as above
T11 construct: range 29-212; Construct limits are stated only for wild-type ULBP2-His; position 81 counts on the mature protein, not on the UniProt entry
T11 sequence: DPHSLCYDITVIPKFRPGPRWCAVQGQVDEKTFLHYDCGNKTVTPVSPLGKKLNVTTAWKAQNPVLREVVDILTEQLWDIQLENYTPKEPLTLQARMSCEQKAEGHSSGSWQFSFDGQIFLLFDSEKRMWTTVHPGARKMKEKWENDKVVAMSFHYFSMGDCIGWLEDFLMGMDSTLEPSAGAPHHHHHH
From the text: as §1

“Trastuzumab.LC-Rae1b (bispecific antibody)” showed an EC50 (read off the curve) [1] of 1 nM.

B1: Rituximab.LC-U2S3 MicAbody (U2S3 A1-A2 domain fused to the C-terminus of the rituximab kappa light chain) (bispecific antibody)
heavy: QVQLQQPGAELVKPGASVKMSCKASGYTFTSYNMHWVKQTPGRGLEWIGAIYPGNGDTSYNQKFKGKATLTADKSSSTAYMQLSSLTSEDSAVYYCARSTYYGGDWYFNVWGAGTTVTVSAA
light (part 1 of 2): QIVLSQSPAILSASPGEKVTMTCRASSSVSYIHWFQQKPGSSPKPWIYATSNLASGVPVRFSGSGSGTSYSLTISRVEAEDAATYYCQQWTSNPPTFGGGTKLEIK
light (part 2 of 2): APTSSSGGGGSEPHSLSYDITVIPKFRPGPRWCAVQGQVDEKTFLHYDCGQKTVTPVSPLGKKLQVTTAWKAQNPVLREVVDILTEQLWDIQLENYTPKEPLTLQARMSCEQKAEGHSSGSWQFSFDGQIFLLFDSEKRMWTTVHPGARKMKEKWENDKVVATKLYLWSMGDCIGWLEDFLMGMDSTLEPS
notes: also called Rit-S3; Ritux-S3; not shown: human IgG1 heavy-chain constant region, ADCC-deficient; human kappa light-chain constant region
In the case of B1, the Kd [2] is reported as 0.01 nM and the “EC50 (read off the curve)” value [3] is reported as roughly 0.03 nM.

B2: R3Mab (anti-FGFR3) heavy-chain C-terminal fusion of U2S3 (MicAbody) (bispecific antibody, part only; not given: R3Mab variable regions and Fc, IgG1, not shown: a dimerising Fc or GST)
heavy, part: GGGSEPHSLSYDITVIPKFRPGPRWCAVQGQVDEKTFLHYDCGQKTVTPVSPLGKKLQVTTAWKAQNPVLREVVDILTEQLWDIQLENYTPKEPLTLQARMSCEQKAEGHSSGSWQFSFDGQIFLLFDSEKRMWTTVHPGARKMKEKWENDKVVATKLYLWSMGDCIGWLEDFLMGMDSTLEPS
In the case of B2, the EC50 (read off the curve) [4] is reported as 0.02 nM.

B3: R3Mab (anti-FGFR3) heavy-chain C-terminal fusion of wild-type ULBP2 (MicAbody) (bispecific antibody, part only; not given: R3Mab variable regions and Fc, IgG1, not shown: a dimerising Fc or GST)
heavy, part: GGGSDPHSLCYDITVIPKFRPGPRWCAVQGQVDEKTFLHYDCGNKTVTPVSPLGKKLNVTTAWKAQNPVLREVVDILTEQLRDIQLENYTPKEPLTLQARMSCEQKAEGHSSGSWQFSFDGQIFLLFDSEKRMWTTVHPGARKMKEKWENDKVVAMSFHYFSMGDCIGWLEDFLMGMDSTLEPSAG
In the case of B3, the EC50 (read off the curve) [5] is reported as 0.4 nM.

B4: R3Mab (anti-FGFR3) heavy-chain C-terminal fusion of ULBP2 R81W (MicAbody) (bispecific antibody, part only; not given: R3Mab variable regions and Fc, IgG1, not shown: a dimerising Fc or GST)
heavy, part: GGGSDPHSLCYDITVIPKFRPGPRWCAVQGQVDEKTFLHYDCGNKTVTPVSPLGKKLNVTTAWKAQNPVLREVVDILTEQLWDIQLENYTPKEPLTLQARMSCEQKAEGHSSGSWQFSFDGQIFLLFDSEKRMWTTVHPGARKMKEKWENDKVVAMSFHYFSMGDCIGWLEDFLMGMDSTLEPSAG
For B4, the EC50 (read off the curve) [5] was 0.02 nM.

B5: Fc-wtNKG2D (wild-type NKG2D ectodomain fused to the C-terminus of human IgG1 Fc) (Fc fusion)
chain: IEGRFLNSLFNQEVQIPLTESYCGPCPKNWICYKNNCYQFFDESKNWYESQASCMSQNASLLKVYSKEDQDLLKLVKSYHWMGLVHIPTNGSWQWEDGSILSPNLLTIIEMQKGDCALYASSFKGYIENCSTPNTYICMQRTV
notes: range 78-216; Dimeric secreted protein from Expi293 cells; also called Fc-NKG2D; not shown: human IgG1 Fc
B5: binds [6]; binds [7]; binds [8]. B5: binds [9]; binds [10]; binds [11]. For the same molecule, the binding result [12] was “binds”, the Kd [13] was 350 nM and the Kd [14] was 8 nM.
